Experimental data: US20210353708A1
Where no end group is shown, it is not given here. [ ]: non-standard residue; d: D form.

B1: BTP-7 conjugated to a fluorescein dye (peptide)
peptide: [dT][dK][dW]G[dH][dV][dN][dK]
modifications: not fully specified (C-terminus); also: FITC on side chain of C-terminal Lys: own Lys8 or an added Lys, not given here
B2: BTP-9, not labeled with a fluorophore (peptide)
peptide: [dA][dD][dR][dR][dQ][dR][dA][dI]-NH2
modifications: N-terminus assumed
SMILES: CC[C@@H](C)[C@@H](NC(=O)[C@@H](C)NC(=O)[C@@H](CCCNC(=N)N)NC(=O)[C@@H](CCC(N)=O)NC(=O)[C@@H](CCCNC(=N)N)NC(=O)[C@@H](CCCNC(=N)N)NC(=O)[C@@H](CC(=O)O)NC(=O)[C@@H](C)N)C(N)=O
B3: BTP-8, not labeled with a fluorophore (peptide)
peptide: [dT][dI][dR][dK][dL][dV][dR][dH]-NH2
modifications: N-terminus assumed
SMILES: CC[C@@H](C)[C@@H](NC(=O)[C@H](N)[C@H](C)O)C(=O)N[C@H](CCCNC(=N)N)C(=O)N[C@H](CCCCN)C(=O)N[C@H](CC(C)C)C(=O)N[C@@H](C(=O)N[C@H](CCCNC(=N)N)C(=O)N[C@H](Cc1c[nH]cn1)C(N)=O)C(C)C

How the values were obtained:
[1] = biological target: recombinant BΔg protein (recombinant human brevican, enzymatically deglycosylated, His-tagged) (human) (UniProt Q96GW7); test: BLI (Octet RED), His-tagged BΔg on Ni-NTA sensors, peptide in solution, steady state analysis
Sequence of recombinant BΔg protein (recombinant human brevican, enzymatically deglycosylated, His-tagged) (human) (Q96GW7 23-911, stated change not applied, form in doubt): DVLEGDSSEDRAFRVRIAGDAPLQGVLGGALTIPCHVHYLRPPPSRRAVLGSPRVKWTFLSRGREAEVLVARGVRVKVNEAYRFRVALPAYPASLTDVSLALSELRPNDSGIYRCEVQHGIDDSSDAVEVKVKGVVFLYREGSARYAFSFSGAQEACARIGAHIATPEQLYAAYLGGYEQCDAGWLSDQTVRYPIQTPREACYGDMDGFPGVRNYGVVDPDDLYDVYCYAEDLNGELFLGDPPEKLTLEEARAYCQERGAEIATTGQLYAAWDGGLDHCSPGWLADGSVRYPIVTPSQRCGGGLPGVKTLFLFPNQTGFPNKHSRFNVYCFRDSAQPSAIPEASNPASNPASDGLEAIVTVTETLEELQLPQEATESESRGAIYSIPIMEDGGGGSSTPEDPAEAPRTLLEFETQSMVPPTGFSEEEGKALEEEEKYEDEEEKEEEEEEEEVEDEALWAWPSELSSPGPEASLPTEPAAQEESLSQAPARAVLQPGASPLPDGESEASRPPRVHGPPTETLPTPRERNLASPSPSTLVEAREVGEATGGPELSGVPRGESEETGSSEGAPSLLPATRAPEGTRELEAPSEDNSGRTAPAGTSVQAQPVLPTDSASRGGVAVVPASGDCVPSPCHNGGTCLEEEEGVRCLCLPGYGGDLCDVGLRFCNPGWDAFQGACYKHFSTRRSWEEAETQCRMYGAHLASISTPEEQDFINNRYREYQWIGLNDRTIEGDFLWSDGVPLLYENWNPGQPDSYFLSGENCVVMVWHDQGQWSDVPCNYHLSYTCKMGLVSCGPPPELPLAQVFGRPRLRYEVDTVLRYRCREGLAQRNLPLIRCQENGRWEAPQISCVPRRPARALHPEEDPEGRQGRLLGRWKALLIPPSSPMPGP

[2] = biological target: recombinant BΔg protein (recombinant human brevican, enzymatically deglycosylated, His-tagged) (human) (UniProt Q96GW7); test: BLI (Octet RED), steady state analysis

| Binder | Kd [1] [nM] | fold lower binding affinity than the unlabeled BTP-7 [2] [fold] |
| --- | --- | --- |
| B1 | 3800 | > 10 |
| B2 | 1500 | – |
| B3 | 1570 | – |
